T1: human CD20 (human, UniProt P11836 1-297)
T1 sequence (looked up): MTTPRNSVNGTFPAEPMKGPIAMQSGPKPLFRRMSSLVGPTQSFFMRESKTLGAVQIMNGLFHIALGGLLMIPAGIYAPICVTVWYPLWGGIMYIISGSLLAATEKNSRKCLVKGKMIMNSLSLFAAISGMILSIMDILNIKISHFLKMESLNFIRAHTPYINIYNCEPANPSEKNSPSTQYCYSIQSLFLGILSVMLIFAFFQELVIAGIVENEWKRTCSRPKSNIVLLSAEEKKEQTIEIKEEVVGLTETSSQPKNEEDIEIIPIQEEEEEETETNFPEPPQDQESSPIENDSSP

B1: T017000062 (bispecific antibody)
chain: EVQLVESGGGLVQPGGSLRLSCTFSGGTFSSYTMGWFRQAPGKEREFVAEVRWGGVTTYSNSLKDRFSISEDSVKNAVYLQMNSLKPEDTAVYYCAAVRQMYMTVVPDYWGQGTLVTVSSGGGGSGGGGSGGGGSGGGGSGGGGSGGGGSGGGGSEVQLVESGGGPVQAGGSLRLSCAASGRTYRGYSMGWFRQAPGKEREFVAAIVWSGGNTYYEDSVKGRFTISRDNAKNTMYLQMTSLKPEDSATYYCAAKIRPYIFKIAGQYDYWGQGTLVTVSSGAADYKDHDGDYKDHDIDYKDDDDKGAAHHHHHH
notes: Bispecific Nanobody construct with tags, expressed in Pichia; also called 20CD019C07-35GS-T0170117G03-FLAG3-HIS6; CD20xCD3 (cluster A)
B2: T017000053 (bispecific antibody)
chain: EVQLVESGGGLVQPGGSLRLSCTFSGGTFSSYTMGWFRQAPGKEREFVAEVRWGGVTTYSNSLKDRFSISEDSVKNAVYLQMNSLKPEDTAVYYCAAVRQMYMTVVPDYWGQGTLVTVSSGGGGSGGGGSGGGGSGGGGSGGGGSGGGGSGGGGSEVQLVESGGGLVQPGGSLRLSCAASGDIYKSFDMGWYRQAPGKQRDLVAVIGSRGNNRGRTNYADSVKGRFTISRDGTGNTVYLLMNKLRPEDTAIYYCNTAPLVAGRPWGRGTLVTVSSGAADYKDHDGDYKDHDIDYKDDDDKGAAHHHHHH
notes: Bispecific Nanobody construct with tags, expressed in Pichia; also called 20CD019C07-35GS-T0170060E11-FLAG3-HIS6; CD20xCD3 (cluster B)
B3: T017000040 (bispecific antibody)
chain: EVQLVESGGGLVQPGGSLRLSCAASGDIYKSFDMGWYRQAPGKQRDLVAVIGSRGNNRGRTNYADSVKGRFTISRDGTGNTVYLLMNKLRPEDTAIYYCNTAPLVAGRPWGRGTLVTVSSGGGGSGGGGSGGGGSGGGGSGGGGSGGGGSGGGGSEVQLVESGGGLVQPGGSLRLSCTFSGGTFSSYTMGWFRQAPGKEREFVAEVRWGGVTTYSNSLKDRFSISEDSVKNAVYLQMNSLKPEDTAVYYCAAVRQMYMTVVPDYWGQGTLVTVSSGAADYKDHDGDYKDHDIDYKDDDDKGAAHHHHHH
notes: Bispecific Nanobody construct with tags, expressed in Pichia; also called T0170060E11-35GS-20CD019C07-FLAG3-HIS6; CD3xCD20 (cluster B)
B4: T017000016 (bispecific antibody)
chain: EVQLVESGGGLVQPGGSLRLSCTFSGGTFSSYTMGWFRQAPGKEREFVAEVRWGGVTTYSNSLKDRFSISEDSVKNAVYLQMNSLKPEDTAVYYCAAVRQMYMTVVPDYWGQGTLVTVSSGGGGSGGGGSGGGGSGGGGSGGGGSGGGGSGGGGSEVQLVESGGGSVQAGGSLRLSCAASGRTFSTNPMGWFRQVPGKERELIAAVRWADGNTFYADSVKGRFTISRDNAKKTVYLQMNSLKSEDTATYYCAAGRPWSAYHSPAEYVHWGQGTLVTVSSGAADYKDHDGDYKDHDIDYKDDDDKGAAHHHHHH
notes: Bispecific Nanobody construct with tags, expressed in Pichia; also called 20CD019C07-35GS-T0170033G03-FLAG3-HIS6; CD20xCD3 (cluster C)
B5: T017000036 (bispecific antibody)
chain: EVQLVESGGGPVQAGGSLRLSCAASGRTYRGYSMGWFRQAPGKEREFVAAIVWSGGNTYYEDSVKGRFTISRDNAKNTMYLQMTSLKPEDSATYYCAAKIRPYIFKIAGQYDYWGQGTLVTVSSGGGGSGGGGSGGGGSGGGGSGGGGSGGGGSGGGGSEVQLVESGGGLVQPGGSLRLSCTFSGGTFSSYTMGWFRQAPGKEREFVAEVRWGGVTTYSNSLKDRFSISEDSVKNAVYLQMNSLKPEDTAVYYCAAVRQMYMTVVPDYWGQGTLVTVSSGAADYKDHDGDYKDHDIDYKDDDDKGAAHHHHHH
notes: Bispecific Nanobody construct with tags, expressed in Pichia; also called T0170117G03-35GS-20CD019C07-FLAG3-HIS6; CD3xCD20 (cluster A)
B6: T017000021 (bispecific antibody)
chain: EVQLVESGGGSVQAGGSLRLSCAASGRTFSTNPMGWFRQVPGKERELIAAVRWADGNTFYADSVKGRFTISRDNAKKTVYLQMNSLKSEDTATYYCAAGRPWSAYHSPAEYVHWGQGTLVTVSSGGGGSGGGGSGGGGSGGGGSGGGGSGGGGSGGGGSEVQLVESGGGLVQPGGSLRLSCTFSGGTFSSYTMGWFRQAPGKEREFVAEVRWGGVTTYSNSLKDRFSISEDSVKNAVYLQMNSLKPEDTAVYYCAAVRQMYMTVVPDYWGQGTLVTVSSGAADYKDHDGDYKDHDIDYKDDDDKGAAHHHHHH
notes: Bispecific Nanobody construct with tags, expressed in Pichia; also called T0170033G03-35GS-20CD019C07-FLAG3-HIS6; CD3xCD20 (cluster C)
B7: T017000045 (bispecific antibody)
chain: B6 chain
B8: T017000061 (bispecific antibody)
chain: EVQLVESGGGLVQPGGSLRLSCTFSGGTFSSYTMGWFRQAPGKEREFVAEVRWGGVTTYSNSLKDRFSISEDSVKNAVYLQMNSLKPEDTAVYYCAAVRQMYMTVVPDYWGQGTLVTVSSGGGGSGGGGSGGGGSGGGGSGGGGSGGGGSGGGGSEVQLVESGGGLVQGGGSLSLSCAASGRTFSSYAMAWFRQPPGKEREFVASISWSGENTNYRNSVKGRFTISRDNAKNTVYLQMNSLKPEDTAVYYCAAKIAKTYPDNWYWTKSNNYNYWGQGTLVTVSSGAADYKDHDGDYKDHDIDYKDDDDKGAAHHHHHH
B9: T017000056 (bispecific antibody)
chain: EVQLVESGGGLVQPGGSLRLSCTFSGGTFSSYTMGWFRQAPGKEREFVAEVRWGGVTTYSNSLKDRFSISEDSVKNAVYLQMNSLKPEDTAVYYCAAVRQMYMTVVPDYWGQGTLVTVSSGGGGSGGGGSGGGGSGGGGSGGGGSGGGGSGGGGSEVQLVESGGGAVQPGGSLRLSCAASGIRISRNMMGWFRQAPGKQRDLVARITPGGDTYYVDSVKGRFSISKDNAKNTVYLQMNSLKPEDTAVYYCNSYSTLGSWGQGTLVTVSSGAADYKDHDGDYKDHDIDYKDDDDKGAAHHHHHH
B10: T017000057 (bispecific antibody)
chain: EVQLVESGGGLVQPGGSLRLSCTFSGGTFSSYTMGWFRQAPGKEREFVAEVRWGGVTTYSNSLKDRFSISEDSVKNAVYLQMNSLKPEDTAVYYCAAVRQMYMTVVPDYWGQGTLVTVSSGGGGSGGGGSGGGGSGGGGSGGGGSGGGGSGGGGSEVQLVESGGGLVQAGGSLRLSCAASGRSFNMNPLGWFRQSPGKEREFVAAHRWSDGNTYYVDSVKGRFTISRDNAKNTVYLQMNSLKSEDTAVYYCAAGRPWSAFRSPGEYVYWGQGTLVTVSSGAADYKDHDGDYKDHDIDYKDDDDKGAAHHHHHH
B11: T017000101 (bispecific antibody)
chain: EVQLVESGGGLVQAGGSLRLSCAASGITFSINTMGWYRQAPGKQRELVALISSIGDTYYADSVKGRFTISRDNAKNTVYLQMNSLKPEDTAVYYCKRFRTAAQGTDYWGQGTLVTVSSGGGGSGGGGSGGGGSGGGGSGGGGSGGGGSGGGGSEVQLVESGGGPVQAGGSLRLSCAASGRTYRGYSMGWFRQAPGKEREFVAAIVWSGGNTYYEDSVKGRFTISRDNAKNTMYLQMTSLKPEDSATYYCAAKIRPYIFKIAGQYDYWGQGTLVTVSSGAADYKDHDGDYKDHDIDYKDDDDKGAAHHHHHH
B12: T017000100 (bispecific antibody)
chain: EVQLVESGGGPVQAGGSLRLSCAASGRTYRGYSMGWFRQAPGKEREFVAAIVWSGGNTYYEDSVKGRFTISRDNAKNTMYLQMTSLKPEDSATYYCAAKIRPYIFKIAGQYDYWGQGTLVTVSSGGGGSGGGGSGGGGSGGGGSGGGGSGGGGSGGGGSEVQLVESGGGLVQAGGSLRLSCAASGITFSINTMGWYRQAPGKQRELVALISSIGDTYYADSVKGRFTISRDNAKNTVYLQMNSLKPEDTAVYYCKRFRTAAQGTDYWGQGTLVTVSSGAADYKDHDGDYKDHDIDYKDDDDKGAAHHHHHH

target: T1, human CD20; test: cell-based or functional assay

Row | Binder | EC50 (M) of IFN-γ secretion by human T cells (ELISA, 72 h) in the xCELLigence based CHO-K1 human CD20 killing assay [M]
1 | B1 | 6.2e-10
2 | B2 | 9.1e-10

target: T1, human CD20; test: cell-based or functional assay; remark: another data set of the same source

Row | Binder | Average IC50 (M), xCELLigence based human T cell mediated CHO-K1 CD20 killing assay, E:T 30:1, 44 h [M]
3 | B3 | 4.89e-10
4 | B4 | 6.81e-12
5 | B1 | 7.88e-10
6 | B5 | 1.04e-09
7 | B2 | 2.81e-10
8 | B6 | 1.52e-10

target: T1, human CD20; test: flow cytometry on human CD20 positive Ramos cells

Row | Binder | EC50 [nM]
9 | B3 | 32
10 | B4 | 1.5
11 | B1 | 1.9
12 | B5 | 21
13 | B2 | 1.8
14 | B6 | 4.7

target: T1, human CD20; test: cell-based or functional assay; remark: another data set of the same source

Row | Binder | IC50 (M), flow cytometry based T cell mediated Ramos killing assay, E:T 1 [M] | IC50 (M), flow cytometry based T cell mediated Ramos killing assay, E:T 2 [M] | IC50 (M), flow cytometry based T cell mediated Ramos killing assay, E:T 5 [M] | IC50 (M), flow cytometry based T cell mediated Ramos killing assay, E:T 10 [M]
15 | B1 | 2.5e-08 | 7.1e-09 | 8.7e-09 | 7.3e-09

target: T1, human CD20; test: cell-based or functional assay; remark: another data set of the same source

Row | Binder | % lysis (% dead cells at 500 nM Nanobody minus no Nanobody control), Ramos killing assay, E:T 10:1 [%] | Average IC50 (M), flow cytometry based primary human T cell mediated Ramos killing assay, E:T 10:1 [M]
16 | B3 | 29 | 6.8e-09
17 | B4 | 4 | 9.2e-09
18 | B7 | 0 | –
19 | B8 | 13 | 2.9e-08
20 | B9 | 4 | 1.5e-08
21 | B10 | 3 | 1.4e-09
22 | B1 | 22 | 3.9e-09
23 | B5 | 26 | 5.5e-09
24 | B2 | 22 | 7e-09

target: T1, human CD20; test: cell-based or functional assay; remark: another data set of the same source

Row | Binder | EC50 (M) (title: IC50), T cell dependent B-cell (Ramos) killing assay
25 | B1 | 6.4e-10
26 | B2 | 1.8e-09

target: human HER2 (human, UniProt P04626 23-1255); test: cell-based or functional assay

Row | Binder | IC50 (M), xCELLigence based cytotoxicity (readout 18 h), MCF-7, E/T 15:1 [M] | IC50 (M), xCELLigence based cytotoxicity (readout 18 h), SKBR3, E/T 15:1 [M]
27 | B11 | 1.1e-10 | 2.6e-11
28 | B12 | 6.9e-11 | 9.5e-12

target: T2, human TCR/CD3 complex on purified primary human T cells (human); test: flow cytometry on primary human T cells
T2 construct: Natural complex on T cells isolated from buffy coats of healthy donors; also called hu T cells; purified primary T cells
T2 sequence (delta, as listed by the source limits assumed, chain 1 of 4): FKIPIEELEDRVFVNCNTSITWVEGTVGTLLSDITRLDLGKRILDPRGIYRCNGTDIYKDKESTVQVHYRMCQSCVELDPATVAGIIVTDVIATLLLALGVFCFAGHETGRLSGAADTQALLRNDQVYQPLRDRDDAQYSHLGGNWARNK
T2 sequence (gamma, as listed by the source limits assumed, chain 2 of 4): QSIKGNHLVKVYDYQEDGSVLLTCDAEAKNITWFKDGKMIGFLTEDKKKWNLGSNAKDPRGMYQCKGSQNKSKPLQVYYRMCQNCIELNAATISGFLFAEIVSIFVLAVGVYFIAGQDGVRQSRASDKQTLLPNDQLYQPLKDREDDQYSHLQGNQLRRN
T2 sequence (epsilon, as listed by the source limits assumed, chain 3 of 4): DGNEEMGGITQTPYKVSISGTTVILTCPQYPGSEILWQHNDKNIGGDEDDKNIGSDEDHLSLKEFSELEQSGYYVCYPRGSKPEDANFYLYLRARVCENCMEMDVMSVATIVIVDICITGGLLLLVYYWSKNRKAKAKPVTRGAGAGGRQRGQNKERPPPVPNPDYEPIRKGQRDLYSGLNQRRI
T2 sequence (zeta, as listed by the source limits assumed, chain 4 of 4): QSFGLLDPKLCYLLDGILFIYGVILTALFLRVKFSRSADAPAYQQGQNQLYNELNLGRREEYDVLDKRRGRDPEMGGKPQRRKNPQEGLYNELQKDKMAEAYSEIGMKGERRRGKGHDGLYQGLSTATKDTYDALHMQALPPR

Row | Binder | EC50 [nM]
29 | B1 | 89
30 | B5 | 35

From patent publication US20250388672A1 (Ablynx, published 2025)
